Experimental data from US20230293638A1 (Eli Lilly, published 2023).
Numbered stars: 1 amine (or outer) side, 2 acyl side, 3 side chain; on linkers, the order of the positions; unused ones are H or OH. Square brackets hold non-standard residues; d marks the D form. Side chains are listed from the residue outwards. Ends that are not written are not given here. * marks the point of attachment. C20 diacid = O=C(O)CCCCCCCCCCCCCCCCCCC(=O)*; αMePhe(2-F) = C[C@](N)(Cc1ccccc1F)C(=O)O; γGlu = O=C(O)[C@H](CCC(=O)[*:2])N[*:1]; αMeF = C[C@](N)(Cc1ccccc1)C(=O)O; αMeL = CC(C)C[C@](C)(N)C(=O)O; cTA = not defined here; AEEA = NCCOCCOCC(=O)O; Aib = CC(C)(N)C(=O)O

B1: Peptide 115 (peptide)
peptide: YXEGTXTSDYSIXLDEKAQXAFIEYLIEGGPSSGAPPPS
modifications: Aib2; αMeF6; αMeL13; K17((2-[2-(2-Amino-ethoxy)-ethoxy]-acetyl)2-(γGlu)-CO-(CH2)18-CO2H); Aib20; C-terminal NH2
B2: Peptide 118 (peptide)
peptide: YXEGTXTSDYSIXLDEKAQXEFIEYLIEGGPSSGAPPPS
modifications: Aib2; αMeF(2F)6; αMeL13; K17((2-[2-(2-Amino-ethoxy)-ethoxy]-acetyl)2-(γGlu)-CO-(CH2)18-CO2H); Aib20; C-terminal NH2
B3: Peptide 123 (peptide)
peptide: YXEGTXTSDYSIXLDKKAQXEFIEYLIEGGPSSG
modifications: Aib2; αMeF6; αMeL13; K17((2-[2-(2-Amino-ethoxy)-ethoxy]-acetyl)2-(γGlu)-CO-(CH2)18-CO2H); Aib20; C-terminal NH2
B4: Peptide 125 (peptide)
peptide: YXEGTXTSDYSIXLDKKAQXAFIEYLIEGGPSSGAPPPS
modifications: Aib2; αMeF6; αMeL13; K17((2-[2-(2-Amino-ethoxy)-ethoxy]-acetyl)2-(γGlu)2-CO-(CH2)18-CO2H); Aib20; C-terminal NH2
B5: Peptide 126 (peptide)
peptide: YXEGTXTSDYSIXLDKKAQXAFIEYLIEAGPSSGAPPPS
modifications: Aib2; αMeF6; αMeL13; K17((2-[2-(2-Amino-ethoxy)-ethoxy]-acetyl)2-(γGlu)-CO-(CH2)18-CO2H); Aib20; C-terminal NH2
B6: Peptide 128 (peptide)
peptide: YXEGTXTSDHSILLDKKAQXAFIEYLIEGGPSSGAPPPS
modifications: Aib2; αMeF6; K17((2-[2-(2-Amino-ethoxy)-ethoxy]-acetyl)2-(γGlu)-CO-(CH2)18-CO2H); Aib20; C-terminal NH2
B7: Peptide 9 (peptide)
peptide: Y[Aib]EGTFTSDYSILLDSK([AEEA-AEEA-γGlu-C20 diacid])AQ[Aib]AFIEYLIEGGPSSGAPPPS-NH2
modifications: N-terminus assumed
SMILES: CC[C@H](C)[C@H](NC(=O)[C@H](CC(C)C)NC(=O)[C@H](Cc1ccc(O)cc1)NC(=O)[C@H](CCC(=O)O)NC(=O)[C@@H](NC(=O)[C@H](Cc1ccccc1)NC(=O)[C@H](C)NC(=O)C(C)(C)NC(=O)[C@H](CCC(N)=O)NC(=O)[C@H](C)NC(=O)[C@H](CCCCNC(=O)COCCOCCNC(=O)COCCOCCNC(=O)CC[C@H](NC(=O)CCCCCCCCCCCCCCCCCCC(=O)O)C(=O)O)NC(=O)[C@H](CO)NC(=O)[C@H](CC(=O)O)NC(=O)[C@H](CC(C)C)NC(=O)[C@H](CC(C)C)NC(=O)[C@@H](NC(=O)[C@H](CO)NC(=O)[C@H](Cc1ccc(O)cc1)NC(=O)[C@H](CC(=O)O)NC(=O)[C@H](CO)NC(=O)[C@@H](NC(=O)[C@H](Cc1ccccc1)NC(=O)[C@@H](NC(=O)CNC(=O)[C@H](CCC(=O)O)NC(=O)C(C)(C)NC(=O)[C@@H](N)Cc1ccc(O)cc1)[C@@H](C)O)[C@@H](C)O)[C@@H](C)CC)[C@@H](C)CC)C(=O)N[C@@H](CCC(=O)O)C(=O)NCC(=O)NCC(=O)N1CCC[C@H]1C(=O)N[C@@H](CO)C(=O)N[C@@H](CO)C(=O)NCC(=O)N[C@@H](C)C(=O)N1CCC[C@H]1C(=O)N1CCC[C@H]1C(=O)N1CCC[C@H]1C(=O)N[C@@H](CO)C(N)=O
B8: Peptide 129 (peptide)
peptide: YXEGTXTSDLSILLDKKAQXAFIEYLIEGGPSSGAPPPS
modifications: Aib2; αMeF6; K17((2-[2-(2-Amino-ethoxy)-ethoxy]-acetyl)2-(γGlu)-CO-(CH2)18-CO2H); Aib20; C-terminal NH2
B9: Peptide 137 (peptide)
peptide: YXEGTXTSDYSIXLDKKAQXXFIEYLIEGGPSSGAPPPS
modifications: Aib2; αMeF6; αMeL13; K17((2-[2-(2-Amino-ethoxy)-ethoxy]-acetyl)2-(γGlu)-CO-(CH2)18-CO2H); Aib20; Aad21; C-terminal NH2
B10: Peptide 139 (peptide)
peptide: YXEGTXTSDYSIXLDKKAQXTFIEYLIEGGPSSGAPPPS
modifications: Aib2; αMeF6; αMeL13; K17((2-[2-(2-Amino-ethoxy)-ethoxy]-acetyl)2-(γGlu)-CO-(CH2)18-CO2H); Aib20; C-terminal NH2
B11: Peptide 140 (peptide)
peptide: YXEGTXTSDYSIXLDKKAQXDFIEYLIEGGPSSGAPPPS
modifications: Aib2; αMeF6; αMeL13; K17((2-[2-(2-Amino-ethoxy)-ethoxy]-acetyl)2-(γGlu)-CO-(CH2)18-CO2H); Aib20; C-terminal NH2
B12: Peptide 143 (peptide)
peptide: YXEGTXTSDYSIXLDKKAQXXFIEYLIEGGPSSGAPPPS
modifications: Aib2; αMeF6; αMeL13; K17((2-[2-(2-Amino-ethoxy)-ethoxy]-acetyl)2-(γGlu)-CO-(CH2)18-CO2H); Aib20; Aib21; C-terminal NH2
B13: Peptide 144 (peptide)
peptide: YXEGTXTSDYSIXLDKKAQHXFIEYLIEGGPSSGAPPPS
modifications: Aib2; αMeF6; αMeL13; K17((2-[2-(2-Amino-ethoxy)-ethoxy]-acetyl)2-(γGlu)-CO-(CH2)18-CO2H); Aib21; C-terminal NH2
B14: Peptide 147 (peptide)
peptide: YXEGTXTSDYSIXLDEKAQXEFIXYLIEGGPSSGAPPPS
modifications: Aib2; αMeF(2F)6; αMeL13; K17((2-[2-(2-Amino-ethoxy)-ethoxy]-acetyl)2-(γGlu)-CO-(CH2)18-CO2H); Aib20; Aad24; C-terminal NH2
B15: Peptide 148 (peptide)
peptide: YXEGTXTSDYSIXLDEKAQXEFIAYLIEGGPSSGAPPPS
modifications: Aib2; αMeF(2F)6; αMeL13; K17((2-[2-(2-Amino-ethoxy)-ethoxy]-acetyl)2-(γGlu)-CO-(CH2)18-CO2H); Aib20; C-terminal NH2
B16: Peptide 149 (peptide)
peptide: YXEGTXTSDYSIXLDEKAQXEFIVYLIEGGPSSGAPPPS
modifications: Aib2; αMeF(2F)6; αMeL13; K17((2-[2-(2-Amino-ethoxy)-ethoxy]-acetyl)2-(γGlu)-CO-(CH2)18-CO2H); Aib20; C-terminal NH2
B17: Peptide 150 (peptide)
peptide: YXEGTXTSDYSIXLDEKAQXEFISYLIEGGPSSGAPPPS
modifications: Aib2; αMeF(2F)6; αMeL13; K17((2-[2-(2-Amino-ethoxy)-ethoxy]-acetyl)2-(γGlu)-CO-(CH2)18-CO2H); Aib20; C-terminal NH2
B18: Peptide 20 (peptide)
peptide: YXEGTFTSDYSIXLDKKAQXAFIEYLIEGGPSSGAPPPS
modifications: Aib2; αMeL13; K17((2-[2-(2-Amino-ethoxy)-ethoxy]-acetyl)2-(γGlu)-CO-(CH2)18-CO2H); Aib20; C-terminal NH2
B19: Peptide 151 (peptide)
peptide: YXEGTXTSDYSIXLDEKAQXEFIPYLIEGGPSSGAPPPS
modifications: Aib2; αMeF(2F)6; αMeL13; K17((2-[2-(2-Amino-ethoxy)-ethoxy]-acetyl)2-(γGlu)-CO-(CH2)18-CO2H); Aib20; C-terminal NH2
B20: Peptide 152 (peptide)
peptide: YXEGTXTSDYSIXLDEKAQXEFIXYLIEGGPSSGAPPPS
modifications: Aib2; αMeF(2F)6; αMeL13; K17((2-[2-(2-Amino-ethoxy)-ethoxy]-acetyl)2-(γGlu)-CO-(CH2)18-CO2H); Aib20; Aib24; C-terminal NH2
B21: Peptide 153 (peptide)
peptide: YXEGTXTSDYSIXLDEKAQXEFIHYLIEGGPSSGAPPPS
modifications: Aib2; αMeF(2F)6; αMeL13; K17((2-[2-(2-Amino-ethoxy)-ethoxy]-acetyl)2-(γGlu)-CO-(CH2)18-CO2H); Aib20; C-terminal NH2
B22: Peptide 154 (peptide)
peptide: Y[Aib]EGT[αMePhe(2-F)]TSDHSI[αMeL]LDEK([AEEA-AEEA-γGlu-C20 diacid])AQ[Aib]EFIEYLIEGGPSSGAPPPS-NH2
modifications: N-terminus assumed
SMILES: CC[C@H](C)[C@H](NC(=O)[C@H](CC(C)C)NC(=O)[C@H](Cc1ccc(O)cc1)NC(=O)[C@H](CCC(=O)O)NC(=O)[C@@H](NC(=O)[C@H](Cc1ccccc1)NC(=O)[C@H](CCC(=O)O)NC(=O)C(C)(C)NC(=O)[C@H](CCC(N)=O)NC(=O)[C@H](C)NC(=O)[C@H](CCCCNC(=O)COCCOCCNC(=O)COCCOCCNC(=O)CC[C@H](NC(=O)CCCCCCCCCCCCCCCCCCC(=O)O)C(=O)O)NC(=O)[C@H](CCC(=O)O)NC(=O)[C@H](CC(=O)O)NC(=O)[C@H](CC(C)C)NC(=O)[C@](C)(CC(C)C)NC(=O)[C@@H](NC(=O)[C@H](CO)NC(=O)[C@H](Cc1c[nH]cn1)NC(=O)[C@H](CC(=O)O)NC(=O)[C@H](CO)NC(=O)[C@@H](NC(=O)[C@](C)(Cc1ccccc1F)NC(=O)[C@@H](NC(=O)CNC(=O)[C@H](CCC(=O)O)NC(=O)C(C)(C)NC(=O)[C@@H](N)Cc1ccc(O)cc1)[C@@H](C)O)[C@@H](C)O)[C@@H](C)CC)[C@@H](C)CC)C(=O)N[C@@H](CCC(=O)O)C(=O)NCC(=O)NCC(=O)N1CCC[C@H]1C(=O)N[C@@H](CO)C(=O)N[C@@H](CO)C(=O)NCC(=O)N[C@@H](C)C(=O)N1CCC[C@H]1C(=O)N1CCC[C@H]1C(=O)N1CCC[C@H]1C(=O)N[C@@H](CO)C(N)=O
B23: Peptide 155 (peptide)
peptide: YXEGTXTSDXSIXLDEKAQXEFIEYLIEGGPSSGAPPPS
modifications: Aib2; αMeF(2F)6; cTA10; αMeL13; K17((2-[2-(2-Amino-ethoxy)-ethoxy]-acetyl)2-(γGlu)-CO-(CH2)18-CO2H); Aib20; C-terminal NH2
B24: Peptide 157 (peptide)
peptide: YXEGTXTSDXSIXLDEKAQXEFIEYLIEGGPSSGAPPPS
modifications: Aib2; αMeF(2F)6; 3Pal10; αMeL13; K17((2-[2-(2-Amino-ethoxy)-ethoxy]-acetyl)2-(γGlu)-CO-(CH2)18-CO2H); Aib20; C-terminal NH2
B25: Peptide 167 (peptide)
peptide: Y[Aib]EGT[αMePhe(2-F)]TSDHSI[αMeL]LDEK([AEEA-AEEA-γGlu-C20 diacid])AQ[Aib]TFI[dE]YLIEGGPSSG-NH2
modifications: N-terminus assumed
SMILES: CC[C@H](C)[C@H](NC(=O)[C@H](CC(C)C)NC(=O)[C@H](Cc1ccc(O)cc1)NC(=O)[C@@H](CCC(=O)O)NC(=O)[C@@H](NC(=O)[C@H](Cc1ccccc1)NC(=O)[C@@H](NC(=O)C(C)(C)NC(=O)[C@H](CCC(N)=O)NC(=O)[C@H](C)NC(=O)[C@H](CCCCNC(=O)COCCOCCNC(=O)COCCOCCNC(=O)CC[C@H](NC(=O)CCCCCCCCCCCCCCCCCCC(=O)O)C(=O)O)NC(=O)[C@H](CCC(=O)O)NC(=O)[C@H](CC(=O)O)NC(=O)[C@H](CC(C)C)NC(=O)[C@](C)(CC(C)C)NC(=O)[C@@H](NC(=O)[C@H](CO)NC(=O)[C@H](Cc1c[nH]cn1)NC(=O)[C@H](CC(=O)O)NC(=O)[C@H](CO)NC(=O)[C@@H](NC(=O)[C@](C)(Cc1ccccc1F)NC(=O)[C@@H](NC(=O)CNC(=O)[C@H](CCC(=O)O)NC(=O)C(C)(C)NC(=O)[C@@H](N)Cc1ccc(O)cc1)[C@@H](C)O)[C@@H](C)O)[C@@H](C)CC)[C@@H](C)O)[C@@H](C)CC)C(=O)N[C@@H](CCC(=O)O)C(=O)NCC(=O)NCC(=O)N1CCC[C@H]1C(=O)N[C@@H](CO)C(=O)N[C@@H](CO)C(=O)NCC(N)=O
B26: Peptide 168 (peptide)
peptide: YXEGTXTSDHSIXLDEKAQXTFIXYLIEGGPSSGAPPPS
modifications: Aib2; αMeF(2F)6; αMeL13; K17((2-[2-(2-Amino-ethoxy)-ethoxy]-acetyl)2-(γGlu)-CO-(CH2)18-CO2H); Aib20; D-Glu24; C-terminal NH2
B27: Peptide 169 (peptide)
peptide: YXEGTXTSDHSIXLDEKAQXTFIXYLIEGGPSSGAPPPS
modifications: Aib2; αMeF(2F)6; αMeL13; K17((2-[2-(2-Amino-ethoxy)-ethoxy]-acetyl)2-(γGlu)-CO-(CH2)16-CO2H); Aib20; D-Glu24; C-terminal NH2
B28: Peptide 171 (peptide)
peptide: YXEGTXTSDHSIXLDXKAQXTFIXYLIEGGPSSGAPPPS
modifications: Aib2; αMeF(2F)6; αMeL13; Orn16; K17((2-[2-(2-Amino-ethoxy)-ethoxy]-acetyl)2-(γGlu)-CO-(CH2)18-CO2H); Aib20; D-Glu24; C-terminal NH2

Each binder was assayed against human GLP-1 receptor (human, UniProt P43220 24-463) (assay: cell-based or functional assay).

Point of comparison: B16, “hGLPIR cAMP EC50 ratio” value 0.484. Against it:
- B1 — higher, 0.743
- B2 — higher, 1.13
- Y[Aib][cTA]GT[αMeF]TSDYSI[αMeL]LDEK([AEEA-AEEA-γGlu-C20 diacid])AQ[Aib]AFIEYLIEGGPSSGAPPPS-NH2 (reading uncertain) [Peptide 120] — lower, 0.319
- B3 — higher, 1.58
- B4 — higher, 1.31
- B5 — higher, 0.869
- B6 — higher, 0.7
- B7 — lower, 0.314
- B8 — higher, 0.543
- B9 — higher, 1.25
- B10 — higher, 1.13
- B11 — higher, 1.16
- B12 — higher, 0.714
- B13 — higher, 0.851
- B14 — higher, 1.13
- B15 — higher, 0.859
- B17 — higher, 0.79
- B18 — higher, 0.577
- B19 — lower, 0.0278
- B20 — the same, 0.484
- B21 — higher, 0.501
- B22 — higher, 1.23
- B23 — lower, 0.0978
- B24 — higher, 1.25
- B25 — lower, 0.0487
- B26 — lower, 0.0323
- B27 — lower, 0.0136
- B28 — lower, 0.0609
